The experiment deals with Alexa-647-labelled actin (UniProt P68135 1-377, Alexa-647 (Monolith NT Protein Labelling Kit RED-NHS)). Nature of the experiment: MST.

B1: recombinant HYC2 (GST-HYC2 or HYC2-6XHis) (natural protein)
chain: MDFSVKPSGGSPSPSSSTSSSTPHRFKSVTTPTATAAAVSGFSPSAAADRDPMHSWWESVSKQRSRILSLSSLLSGDSHFEDGDVTPISSLADSDRPALSLLSSRAAYSLISNSLCNPASGSGSDPLCQWLYETYLSSDPPLRLVVLSFFPLLVGMYLSRIHSSDSTSLPSLSGFEAVLLAIYAAEVKARAGKPILVHIPDLSQPSLYHTPRNGVDKSRDSNPTASVGVLSPQLEPQIAVKSTKRASIVGVGLQCYFKEISQMPAWSKLEFCKFSASWAGQDCDCKEKIDEDEDKVLALTNGFGDSSSFNGSSGRSLEIEEDFDRLAIRENEEQLSSNGGGGGVGRGVRIPLPWELFQPTLRILGHCLLSPLNTEDVKDAASNAVRSLYARASHDLNPQAILATRSLVNLDTSARTSGKTVAAETVNGSSNVNTPSKAKKPEILLASK
The term Kd denotes the concentration at which binding is half-saturated. As for B1, the equilibrium dissociation constant (Kd) is 330 ± 80 nM.

The values above are taken from publication doi:10.1101/2024.09.06.611148 (bioRxiv, 2024).
